EP4471048A1, “PEPTIDE INHIBITORS OF INTERLEUKIN-23 RECEPTOR” (Zealand Pharma A/S, priority 2023, dated 2024)
*1 amine or outer side, *2 acyl side, *3 side chain or, on linkers, in order; H or OH if unused. Bridges are numbered along the chain shown (N, C = ends). Primed or numbered codes have the meaning given here. Where no end group is shown, it is not given here. [ ]: non-standard residue; d: D form. 4‑Aminomethyl‑phenylacetyl = 4-aminomethyl-phenylacetyl unit, its amine closes the lactam, O=C(Cc1ccc(CN[*:1])cc1)[*:2]; 1,3‑dibromopropan‑2‑one″ = linker forming 1,3-dithio-propan-2-one bridge -SCH2C(=O)CH2S- between two Cys; (N3)‑K = lysine with the alpha-amine converted to an azide, [N-]=[N+]=N[C@@H](CCCCN[*:3])C(=O)[*:2]; bLys = L-beta-lysine, (3S)-3,6-diaminohexanoic acid, O=C(C[C@H](CCCN[*:3])N[*:1])[*:2]; 2Nal = N[C@@H](Cc1ccc2ccccc2c1)C(=O)O; AEF = NCCOc1ccc(C[C@H](N)C(=O)O)cc1; 3Pal = N[C@@H](Cc1cccnc1)C(=O)O; αMeL = CC(C)C[C@](C)(N)C(=O)O; CH2COCH2 = O=C(C[*:1])C[*:2]; 3Amb = NCc1cccc(C(=O)O)c1; NMeS = CN[C@@H](CO)C(=O)O; dDab = NCC[C@@H](N)C(=O)O; Pra = C#CC[C@H](N)C(=O)O; Dab = NCC[C@H](N)C(=O)O; βAla = NCCC(=O)O

T1: human IL-23R endogenously expressed on DB cells (human, UniProt Q5VWK5 24-629)
T1 sequence (looked up): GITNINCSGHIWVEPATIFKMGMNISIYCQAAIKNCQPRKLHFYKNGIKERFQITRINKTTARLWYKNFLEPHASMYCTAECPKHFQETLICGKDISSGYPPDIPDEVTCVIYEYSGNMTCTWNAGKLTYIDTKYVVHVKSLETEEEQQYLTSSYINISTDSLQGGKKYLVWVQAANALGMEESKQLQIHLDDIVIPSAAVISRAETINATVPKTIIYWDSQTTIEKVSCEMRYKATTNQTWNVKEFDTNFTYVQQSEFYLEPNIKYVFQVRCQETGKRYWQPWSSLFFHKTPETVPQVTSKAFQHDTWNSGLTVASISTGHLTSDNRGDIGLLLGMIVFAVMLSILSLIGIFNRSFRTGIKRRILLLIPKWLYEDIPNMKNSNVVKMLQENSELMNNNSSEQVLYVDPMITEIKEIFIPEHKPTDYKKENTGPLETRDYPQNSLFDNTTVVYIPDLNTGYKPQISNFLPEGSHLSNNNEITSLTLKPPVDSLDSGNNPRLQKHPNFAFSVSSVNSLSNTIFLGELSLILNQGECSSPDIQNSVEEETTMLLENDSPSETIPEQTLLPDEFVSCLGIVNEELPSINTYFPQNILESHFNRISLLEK

T2: Nluc-IL23R fusion protein (human, UniProt Q5VWK5 22-629)
T2 construct: range 22-629; Stably expressed in HEK293 cells; also called hIL-23R; human IL-23R; not shown: Nanoluc protein (N1371, Promega) at the N-terminus, after a secretion signal
T2 sequence (looked up): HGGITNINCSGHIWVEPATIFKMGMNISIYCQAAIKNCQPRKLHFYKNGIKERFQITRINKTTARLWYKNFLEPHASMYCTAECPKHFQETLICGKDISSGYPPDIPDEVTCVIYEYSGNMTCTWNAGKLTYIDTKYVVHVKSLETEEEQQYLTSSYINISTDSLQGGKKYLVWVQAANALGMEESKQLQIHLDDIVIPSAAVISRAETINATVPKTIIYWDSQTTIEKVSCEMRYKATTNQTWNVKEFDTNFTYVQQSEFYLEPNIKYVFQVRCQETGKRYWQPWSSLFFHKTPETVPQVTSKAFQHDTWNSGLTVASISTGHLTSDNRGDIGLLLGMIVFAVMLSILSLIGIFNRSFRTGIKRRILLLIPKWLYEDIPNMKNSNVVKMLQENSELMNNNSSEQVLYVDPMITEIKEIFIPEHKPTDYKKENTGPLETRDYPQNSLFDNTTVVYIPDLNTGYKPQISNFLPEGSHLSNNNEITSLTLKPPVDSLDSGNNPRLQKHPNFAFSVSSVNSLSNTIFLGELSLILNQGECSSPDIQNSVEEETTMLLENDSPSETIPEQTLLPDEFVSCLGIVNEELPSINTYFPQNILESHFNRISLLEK

B1: Compound 60 (peptide)
peptide: KIVWQE[AEF][2Nal][αMeL]E[Dab][3Pal]-NHMe
modifications: lactam 1-10, N-6
SMILES: CC[C@H](C)[C@@H]1NC(=O)[C@@H]2CCCCNC(=O)CC[C@@H](C(=O)N[C@@H](CCN)C(=O)N[C@@H](Cc3cccnc3)C(=O)NC)NC(=O)[C@](C)(CC(C)C)NC(=O)[C@H](Cc3ccc4ccccc4c3)NC(=O)[C@H](Cc3ccc(OCCN)cc3)NC(=O)[C@H](CCC(=O)N2)NC(=O)[C@H](CCC(N)=O)NC(=O)[C@H](Cc2c[nH]c3ccccc23)NC(=O)[C@H](C(C)C)NC1=O
B2: Compound 102 (peptide)
peptide: [iso‑Lys]WQE[AEF][2Nal][αMeL]E[Dab][3Pal]-NHMe
modifications: lactam (positions not given here); not fully specified (bridges); printed as [iso-Lys](1c)^†(6c)WQE(6c)[Y(2-aminoethoxy)][2-Nal][2-Me-Leu]E(1c)[Dab][3-(3-Pyridyl)-Ala]-[NHMe], (1c) [2,11] lactam, (6c) [2,7] lactam, ^† alpha-amine in bridge
B3: Compound 11 (peptide)
peptide: [dDab]TVWQD[AEF][2Nal][αMeL]E[Dab][3Pal]-NH2
modifications: lactam 1-10, N-6
SMILES: CC(C)C[C@]1(C)NC(=O)[C@H](Cc2ccc3ccccc3c2)NC(=O)[C@H](Cc2ccc(OCCN)cc2)NC(=O)[C@@H]2CC(=O)N[C@H](CCNC(=O)CC[C@@H](C(=O)N[C@@H](CCN)C(=O)N[C@@H](Cc3cccnc3)C(N)=O)NC1=O)C(=O)N[C@@H]([C@@H](C)O)C(=O)N[C@@H](C(C)C)C(=O)N[C@@H](Cc1c[nH]c3ccccc13)C(=O)N[C@@H](CCC(N)=O)C(=O)N2
B4: Compound 110 (peptide)
peptide: K[βAla]WQEW[2Nal][αMeL]E[Dab][3Pal]-NHMe
modifications: lactam 1-9, N-5
SMILES: CNC(=O)[C@H](Cc1cccnc1)NC(=O)[C@H](CCN)NC(=O)[C@@H]1CCC(=O)NCCCC[C@@H]2NC(=O)CC[C@H](NC(=O)[C@H](CCC(N)=O)NC(=O)[C@H](Cc3c[nH]c4ccccc34)NC(=O)CCNC2=O)C(=O)N[C@@H](Cc2c[nH]c3ccccc23)C(=O)N[C@@H](Cc2ccc3ccccc3c2)C(=O)N[C@@](C)(CC(C)C)C(=O)N1
B5: Compound 1 (peptide)
peptide: [dK]TVWQE[AEF][2Nal][αMeL]E[Dab][3Pal]-NH2
modifications: lactam 1-10; lactam (positions not given here); not fully specified (bridges); printed as [{d}K](1c)(6c)^{†}TVWQE(6c)[Y(2-aminoethoxy)][2-Nal][2-Me-Leu]E(1c)[Dab][3-(3-Pyridyl)-Ala]-[NH2]
B6: Compound 41 (peptide)
peptide: [(N3)‑K]TWQ[Pra][AEF][2Nal][αMeL]E[Dab][3Pal]-NHMe
modifications: lactam 1-9; triazole (positions not given here); not fully specified (bridges); printed as [(N₃)-K](1c)(6g)^{†}TWQ[Pra](6g)[Y(2-aminoethoxy)][2-Nal][2-Me-Leu]E(1c)[Dab][3-(3-Pyridyl)-Ala]-[NHMe]
B7: Compound 42 (peptide)
peptide: XTWQXXXXEXX
modifications: not fully specified; [{d}(N3)-K](1c)(6g)^†TWQ[Hpg](6g)[Y(2-aminoethoxy)][2-Nal][2-Me-Leu]E(1c)[Dab][3-(3-Pyridyl)-Ala]-[NHMe]; (1c) [2,11] lactam; (6g) [2,7] 1,4-disubstituted 1,2,3-triazole bridge; ^† alpha-amine converted into an azide in bridge
B8: Compound 43 (peptide)
peptide: KWQE[AEF][2Nal][αMeL]E[Dab][3Pal]-NHMe
modifications: lactam 1-8, N-4
SMILES: CNC(=O)[C@H](Cc1cccnc1)NC(=O)[C@H](CCN)NC(=O)[C@@H]1CCC(=O)NCCCC[C@@H]2NC(=O)CC[C@H](NC(=O)[C@H](CCC(N)=O)NC(=O)[C@H](Cc3c[nH]c4ccccc34)NC2=O)C(=O)N[C@@H](Cc2ccc(OCCN)cc2)C(=O)N[C@@H](Cc2ccc3ccccc3c2)C(=O)N[C@@](C)(CC(C)C)C(=O)N1

Tests used:
[1] = target: T1, human IL-23R endogenously expressed on …; assay: cell-based or functional assay
[2] = target: T2, Nluc-IL23R fusion protein; assay: BRET competition vs TAMRA-labelled peptide, Nluc-IL23R membranes

Row | Binder | hIL-23 (pSTAT3) antagonist % inhibition [1] [%] | hIL-23 (pSTAT3) antagonist IC50 [1] | % displacement [2] [%]
1 | B1 | 101 | 0.63 nM | 95
2 | B2 |  |  | 97
3 | [iso‑Glu]WQE[AEF][2Nal][αMeL]K[Dab][3Pal]-NHMe (lactam 1-8, N-4; also: iso-Glu: alpha-carboxylic acid in bridge) [Compound 106] |  |  | 99
4 | B3 |  |  | 104
5 | B4 |  |  | 100
6 | [3Amb]SCWQC[AEF][2Nal][αMeL]E[dR]-NH2 (lactam N-10; linker 3-6 via 1,3‑dibromopropan‑2‑one″) [Ref 41] | 99 | 29 nM | 110
7 | [4‑Aminomethyl‑phenylacetyl]SCWQC[AEF][2Nal][αMeL]ER-NH2 (lactam N-10; linker 3-6 via 1,3‑dibromopropan‑2‑one″) [Ref 52] | 103 | 7.8 nM | 100
8 | [3Amb]SCWQC[AEF][2Nal][αMeL]ER[3Pal]-NH2 (lactam N-10; linker 3-6 via 1,3‑dibromopropan‑2‑one″) [Ref 78] | 100 | 0.13 nM | 100
9 | [4‑Aminomethyl‑phenylacetyl]SCWQC[AEF][2Nal][αMeL]E[dR]-NH2 (lactam N-10; linker 3-6 via 1,3‑dibromopropan‑2‑one″) [Ref 80] | 97 | 11 nM | 98
10 | [bLys]TVWQE[AEF][2Nal][αMeL]E[Dab][3Pal]-NH2 (lactam 1-10, N-6) [Compound 12] | 100 |  | 104
11 | [4‑Aminomethyl‑phenylacetyl]SCWQC[AEF][2Nal][αMeL]E[Dab]-NH2 (lactam N-10; linker 3-6 via 1,3‑dibromopropan‑2‑one″) [Ref 82] | 97 | 11 nM | 103
12 | [4‑Aminomethyl‑phenylacetyl]SCWQC[AEF][2Nal][αMeL]E[Dab][3Pal]-NH2 (lactam N-10; linker 3-6 via 1,3‑dibromopropan‑2‑one″) [Ref 120] | 101 | 54 pM | 94
13 | [4‑Aminomethyl‑phenylacetyl]SEWQ[Dab][AEF][2Nal][αMeL]E[Dab][3Pal]-NH2 (lactam N-10; bridge 3-6; also: (2c) bridge type not defined) [Ref 122] |  | 28 pM | 97
14 | [4‑Aminomethyl‑phenylacetyl][NMeS]CWQC[AEF][2Nal][αMeL]E[Dab]-NH2 (lactam N-10; linker 3-6 via CH2COCH2) [Ref 141] |  |  | 102
15 | Ac-KTCWQC[AEF][2Nal][αMeL]E[Dab][3Pal]-NH2 (lactam 1-10; linker 3-6 via 1,3‑dibromopropan‑2‑one″) [Ref 155] | 100 | 31 pM | 97
16 | B5 | 102 | 0.23 nM | 103
17 | B6 |  |  | 98
18 | B7 |  |  | 96
19 | B8 |  |  | 100
